Assay results: doi:10.1101/2021.07.09.451618

Target: F-actin, rabbit skeletal muscle (rabbit) (UniProt P68135)

M15-2IQ : ELC : RLC complex (1:1:1), jordan (p.D1647G) MYO15 motor domain (from UniProt P60661 1-151)
kcat: extrapolated maximum catalytic rate of the actin-activated ATPase: 0.87 s⁻¹

M15-2IQ : ELC : RLC complex (1:1:1), wild-type MYO15 motor domain (from UniProt P60661 1-151)
kcat: extrapolated maximum catalytic rate of the actin-activated ATPase: 5.8 s⁻¹
